The results in this text go back to patent publication US20260234234A1 (QILU PUGET SOUND BIOTHERAPEUTICS, published 2026).

In test [1] the target is T1, Avitag_c-MYC_His6_hTSLP (wild type) QB11630 (human).
T1 construct: N-terminal tags are part of the entry; also called in-house hTSLP native antigen QB11630
Put plainly: SPR, in-house hTSLP QB11630 analyte.

Test [2] concerns the target T1, Avitag_c-MYC_His6_hTSLP (wild type) …. Put plainly: cell-based or functional assay.
The target in test [3] is T2, Avitag_c-MYC_His6_hTSLP QB11631 with mutations of R127A + R130S (human). Put plainly: cell-based or functional assay.
Test [4] addresses T3, Avitag_FLAG_His6_cyTSLP QB11632 (wild type) (cynomolgus monkey).
T3 chain: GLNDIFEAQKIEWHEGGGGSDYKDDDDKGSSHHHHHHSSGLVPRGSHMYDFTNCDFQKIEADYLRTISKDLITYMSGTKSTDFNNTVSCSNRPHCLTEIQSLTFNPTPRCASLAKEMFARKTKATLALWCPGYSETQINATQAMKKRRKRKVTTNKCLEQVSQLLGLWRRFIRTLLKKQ
The test can be described thus: cell-based or functional assay.

The target of test [5] is T4, Avitag_FLAG_His6_cyTSLP QB11633 with mutations of R127A + R130S (cynomolgus monkey).
T4 chain: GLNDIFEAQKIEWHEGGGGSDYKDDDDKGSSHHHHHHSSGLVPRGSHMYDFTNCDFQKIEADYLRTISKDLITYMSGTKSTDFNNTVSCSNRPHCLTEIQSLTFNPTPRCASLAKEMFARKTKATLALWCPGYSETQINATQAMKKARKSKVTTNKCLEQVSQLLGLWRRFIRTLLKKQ
Put plainly: cell-based or functional assay.

The target in test [6] is T5, native hTSLP derived from human Small Airway Epithelial Cells (healthy donor 1 and donor 2) (human, UniProt Q969D9 29-159, limits assumed). Put plainly: cell-based or functional assay.
The target in test [7] is T5, native hTSLP derived from human Small …. Put plainly: cell-based or functional assay. This is another data set of the same source.
Test [8] has as its target T1, Avitag_c-MYC_His6_hTSLP (wild type) …. Put plainly: SPR, captured antibody, monomeric TSLP analyte, 25 C, 1:1 Langmuir fit.
The target in test [9] is T2, Avitag_c-MYC_His6_hTSLP QB11631 with …. The test is described as above.
In test [10] the target is hTSLP, R&D Systems 1398-TS-010 (E. coli) (human, UniProt Q969D9 29-159, limits assumed). The description is as above.
The target of test [11] is T3, Avitag_FLAG_His6_cyTSLP QB11632 (wild …). Described as above.
The target in test [12] is T4, Avitag_FLAG_His6_cyTSLP QB11633 with …. Described as above.
The target in test [13] is T1, Avitag_c-MYC_His6_hTSLP (wild type) …. The test can be described thus: cell-based or functional assay. The source holds these as a separate data set.
The target of test [14] is T2, Avitag_c-MYC_His6_hTSLP QB11631 with …. The test can be described thus: cell-based or functional assay. This is another data set of the same source.
Test [15] has as its target T1, Avitag_c-MYC_His6_hTSLP (wild type) …. Put plainly: cell-based or functional assay. The source holds these as a separate data set.
Test [16] addresses T2, Avitag_c-MYC_His6_hTSLP QB11631 with …. Put plainly: cell-based or functional assay. This is another data set of the same source.
For test [17], the target named is T3, Avitag_FLAG_His6_cyTSLP QB11632 (wild …). The test can be described thus: cell-based or functional assay.
Test [18] has as its target T1, Avitag_c-MYC_His6_hTSLP (wild type) …. Put plainly: cell-based or functional assay. This is another data set of the same source.
The target in test [19] is T2, Avitag_c-MYC_His6_hTSLP QB11631 with …. Put plainly: cell-based or functional assay. The source holds these as a separate data set.
Test [20] has as its target T3, Avitag_FLAG_His6_cyTSLP QB11632 (wild …). Put plainly: cell-based or functional assay.
Test [21] has as its target T1, Avitag_c-MYC_His6_hTSLP (wild type) …. The test can be described thus: cell-based or functional assay. The source holds these as a separate data set.
In test [22] the target is T2, Avitag_c-MYC_His6_hTSLP QB11631 with …. The test can be described thus: cell-based or functional assay. The source holds these as a separate data set.
Test [23] deals with T3, Avitag_FLAG_His6_cyTSLP QB11632 (wild …). Put plainly: cell-based or functional assay.
In test [24] the target is T6, hTSLP, ACRO Biosystems TSP-H52Hb (HEK293) (human, UniProt Q969D9 29-159, limits assumed).
T6 construct: also called Acro-WT
The test can be described thus: SPR, captured antibody, monomeric TSLP analyte, 25 C, 1:1 Langmuir fit.

Test [25] has as its target T7, cyTSLP, ACRO Biosystems TSP-C52H8 (HEK293) (cynomolgus monkey, UniProt A0A7N9CAT7 29-159).
T7 construct: also called Acro WT
Described as above.

In test [26] the target is T8, cyTSLP (R127A, R130S), ACRO Biosystems TSP-C52H4 (HEK293) (cynomolgus monkey, UniProt A0A7N9CAT7 29-159).
T8 construct: also called Acro-RA-RS
Described as above.

In test [27] the target is T9, cyTSLP (R127A, R130S), Sino Biological 90911-C08H-100 (HEK293) (cynomolgus monkey, UniProt A0A7N9CAT7 29-159).
T9 construct: also called Sino-RA-RS
Described as above.

The target in test [28] is T10, cyTSLP antigen, version not stated (cynomolgus monkey, UniProt A0A7N9CAT7 29-159).
T10 construct: Used where the text only says cyTSLP
The test can be described thus: SPR (Biacore).

The target in test [29] is T2, Avitag_c-MYC_His6_hTSLP QB11631 with …. The test can be described thus: SPR (Biacore).
Test [30] has the same target. The test can be described thus: SPR (Biacore), hTSLP (R127A+R130S) antigen.

A value given as a limit tells only on which side of the number the result lay.

B1: anti-hTSLP IgG1-D265A antibody QB11764 (antibody, V domains shown)
VH: EVQLVESGGGLVQPGGSLRLSCAASGFDFSSYWISWVRQAPGKRPEWIASIDIDIDIADYASWAKGRFTISRDNSKNTLYLQMNSLRAEDTAVYYCVRNLGLWGPGTLVTVSS
VL: DIQMTQSPSSLSASVGDRVTITCQSSQNVYDKDALAWYQHKPGKRPKLLIYEASRLASGVPSRFSGSGSGTHFTLTISSLQPEDAATYYCAGTRIDNIYTFGDGTKVEIKR
notes: QB11548 altered for MabPair production; alterations are in the entries; also called lead anti-hTSLP antibody QB11764
On to B1, for which the “fold lower binding affinity against QB10985” value in test [1] is about 3 fold. The “IC50, inhibition of TSLP-induced proliferation of BaF3 cells expressing hTSLPR/hIL-7Rα (CellTiter-Glo, RLU); stimulus hTSLP QB11630” value in test [2] was 0.1 nM. Also, in [3], the “IC50, inhibition of TSLP-induced proliferation of BaF3 cells expressing hTSLPR/hIL-7Rα (CellTiter-Glo, RLU); stimulus hTSLP QB11631” value came out at 0.17 nM. The “IC50, inhibition of TSLP-induced proliferation of BaF3 cells expressing hTSLPR/hIL-7Rα (CellTiter-Glo, RLU); stimulus cyTSLP QB11632” value in [4] was 0.34 nM. The “IC50, inhibition of TSLP-induced proliferation of BaF3 cells expressing hTSLPR/hIL-7Rα (CellTiter-Glo, RLU); stimulus cyTSLP QB11633” value in test [5] worked out at 0.12 nM. The “IC50, inhibition of TSLP-induced proliferation of BaF3 cells expressing hTSLPR/hIL-7Rα (CellTiter-Glo, RLU); stimulus native hTSLP from healthy donor 1” value in [6] was 0.012 nM. Besides, the “IC50, inhibition of TSLP-induced proliferation of BaF3 cells expressing hTSLPR/hIL-7Rα (CellTiter-Glo, RLU); stimulus native hTSLP from healthy donor 2” value in test [7] amounted to 0.012 nM. In addition, the equilibrium dissociation constant (Kd) turned out to be 0.154 nM in test [8]; 0.0595 nM in test [9]; 0.004 nM in test [10]; 1.27 nM in test [11]; 0.131 nM in test [12]. Besides, the dissociation rate constant (koff) in test [8] worked out at 0.000196 s⁻¹; in test [9], 0.000192 s⁻¹; in test [10], 0.000142 s⁻¹; in [11], 0.000174 s⁻¹; in [12] it was 0.000132 s⁻¹. Moreover, the kon in [8] is 1.27e+06 M⁻¹ s⁻¹; in test [9], 3.23e+06 M⁻¹ s⁻¹; in [10], 3.56e+07 M⁻¹ s⁻¹; in test [11] it was 137000 M⁻¹ s⁻¹; in test [12], 1.01e+06 M⁻¹ s⁻¹.

B2: anti-hTSLP IgG1-D265A antibody QB11718 (antibody, V domains shown)
VH: QVQLVQSGPEVKKPGSSVKVSCKASGYIFTDYAMHWVRQRPGQDLEWMGTFIPLLDTSDYNQNFKGRATITADKSTSTAYMELSSLRSEDTAVYYCARMGVTHSYVMDAWGQGTLVTVSS
VL: EIVLTQSPGTLSLSPGERATLSCRASQHISRSVHWYQQKPGEAPRLLIYFASQSISGIPDRFSGSGSGTDFTLTISRLESEDFAVYYCQQSYSFPYTFGRGTKVEIKR
notes: QB11237 altered for MabPair production; alterations are in the entries; also called lead anti-hTSLP antibody QB11718
As to B2, the results for the “IC50, inhibition of hTSLP-induced IL-5 secretion from human ILC2s” value in test [13] and in [14] were 0.1 nM and 0.35 nM, respectively. Moreover, the “IC50, inhibition of TSLP-induced proliferation of BaF3 cells expressing hTSLPR/hIL-7Rα (CellTiter-Glo, RLU); stimulus hTSLP QB11630” value in test [2] worked out at 0.0058 nM. The “IC50, inhibition of TSLP-induced proliferation of BaF3 cells expressing hTSLPR/hIL-7Rα (CellTiter-Glo, RLU); stimulus hTSLP QB11631” value in test [3] is 0.012 nM. Also, the “IC50, inhibition of TSLP-induced proliferation of BaF3 cells expressing hTSLPR/hIL-7Rα (CellTiter-Glo, RLU); stimulus cyTSLP QB11632” value in test [4] amounted to 0.012 nM. In test [5], the “IC50, inhibition of TSLP-induced proliferation of BaF3 cells expressing hTSLPR/hIL-7Rα (CellTiter-Glo, RLU); stimulus cyTSLP QB11633” value was 0.0022 nM. Moreover, the “IC50, inhibition of TSLP-induced proliferation of BaF3 cells expressing hTSLPR/hIL-7Rα (CellTiter-Glo, RLU); stimulus native hTSLP from healthy donor 1” value in test [6] was determined as 0.0014 nM. Also, the “IC50, inhibition of TSLP-induced proliferation of BaF3 cells expressing hTSLPR/hIL-7Rα (CellTiter-Glo, RLU); stimulus native hTSLP from healthy donor 2” value in test [7] turned out to be 0.0018 nM. In [15], the “IC50, inhibition of TSLP-induced pSTAT5 (AlphaLISA, MFI) in BaF3 cells expressing hTSLPR/hIL-7Rα; stimulus hTSLP QB11630” value was determined as 1.7 nM. Moreover, the “IC50, inhibition of TSLP-induced pSTAT5 (AlphaLISA, MFI) in BaF3 cells expressing hTSLPR/hIL-7Rα; stimulus hTSLP QB11631” value in test [16] was 0.78 nM. For the same molecule, the “IC50, inhibition of TSLP-induced pSTAT5 (AlphaLISA, MFI) in BaF3 cells expressing hTSLPR/hIL-7Rα; stimulus cyTSLP QB11632” value in test [17] came to 0.28 nM. The “IC50, inhibition of TSLP-induced CCL17 release from primary human monocytes (ELISA, pg/mL); stimulus hTSLP QB11630” value in [18] came out at 0.0045 nM. Also, in test [19], the “IC50, inhibition of TSLP-induced CCL17 release from primary human monocytes (ELISA, pg/mL); stimulus hTSLP QB11631” value came out at 0.0013 nM. Moreover, the “IC50, inhibition of TSLP-induced CCL17 release from primary human monocytes (ELISA, pg/mL); stimulus cyTSLP QB11632” value in test [20] was found to be 0.0027 nM. Further, the “IC50, inhibition of TSLP-induced pSTAT5 (AlphaLISA, MFI) in cultured primary human ILC2 cells; stimulus hTSLP QB11630” value in test [21] came out at 1.5 nM. Also, the “IC50, inhibition of TSLP-induced pSTAT5 (AlphaLISA, MFI) in cultured primary human ILC2 cells; stimulus hTSLP QB11631” value in test [22] was determined as 3.1 nM. For the same molecule, the “IC50, inhibition of TSLP-induced pSTAT5 (AlphaLISA, MFI) in cultured primary human ILC2 cells; stimulus cyTSLP QB11632” value in test [23] was found to be 0.46 nM. The dissociation constant Kd was 0.0778 nM in test [8]; 0.0163 nM in test [9]; 0.00502 nM in [10]; 0.0118 nM in test [24]; 0.831 nM in [11]; 0.075 nM in test [12]. The dissociation constant Kd in test [25] stood at 0.0295 nM; in test [26], 0.0263 nM; in test [27], 0.0187 nM.

B3: anti-hTSLP QB11060, humanized antibody clone hz-3C-V6 (antibody, human IgG4 S228P, kappa, V domains shown)
VH: QVQLVQSGPEVKKPGSSVKVSCKASGYIFTDYAMHWVRQRPGQGLEWMGTFIPLLDTSDYNQNFKGRATITADKSTSTAYMELSSLRSEDTAVYYCARMGVTHSYVMDAWGQGTLVTVSS
VL: EIVLTQSPGTLSLSPGERATLSCRASQPISISVHWYQQKPGEAPRLLIYFASQSISGIPDRFSGSGSGTDFTLTISRLESEDFAVYYCQQTFSLPYTFGTGTKVEIKR
notes: hz-3C with D9P + S108L in the VH
As for B3, in [28], the “fold binding difference between hTSLP and cyTSLP” value was under 10 fold. Further, the “fold lower binding affinity against comparator QB10985” value in [29] was 8.8 fold. Further, in test [30], the dissociation constant Kd is 1.62 nM, the koff amounted to 0.000852 s⁻¹ and the kon is 527000 M⁻¹ s⁻¹.
